Test results published in patent US20150306193.

Molecular target: T1, purified mouse serpinB13 (GenScript) (UniProt Q8CDC0)
T1 sequence: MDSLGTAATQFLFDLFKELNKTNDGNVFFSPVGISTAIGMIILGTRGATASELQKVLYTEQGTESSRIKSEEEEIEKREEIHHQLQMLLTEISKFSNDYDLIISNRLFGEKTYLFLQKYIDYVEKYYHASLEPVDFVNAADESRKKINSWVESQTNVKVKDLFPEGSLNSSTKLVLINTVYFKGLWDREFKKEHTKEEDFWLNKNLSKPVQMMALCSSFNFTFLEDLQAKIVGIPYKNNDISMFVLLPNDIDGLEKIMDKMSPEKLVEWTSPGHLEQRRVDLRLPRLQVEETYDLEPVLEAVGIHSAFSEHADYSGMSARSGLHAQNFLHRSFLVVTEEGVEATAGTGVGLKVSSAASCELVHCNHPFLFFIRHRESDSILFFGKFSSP

Cathepsin L (Calbiochem)
cleavage of (CBZ-Phe-Arg)2-R110 substrate by cathepsin L in the presence of serpinB13 (fold induction of maximum fluorescence over background): cathepsin L-mediated cleavage of the fluorescent substrate (CBZ-Phe-Arg)2-R110 from inhibition by serpinB13 in vitro
